Results reported in patent US20180155451A1 (published 2018).

Columns and labels:
[1] = target: T1, FcγRIIIa extracellular domain with C-terminal His tag (human, UniProt P08637 17-208); experiment: SPR (Biacore); relative FcγRIIIa binding divided by relative FcγRIIb binding of the same antibody
T1 construct: extracellular domain; also called FcgRIIIa; 3a; not shown: His tag attached to the C terminus
Protocol: (§1) Analysis of interaction between objective antibody and the FcγR was carried out using Biacore T100 (GE Healthcare). HBS-EP+ (GE Healthcare) was used as the running buffer, and the measurement temperature was set to 25° C. Chips produced by immobilizing the antigen peptide by the amine coupling method to a Series S Sencor Chip CM5 (GE Healthcare), or alternatively, chips produced by allowing preliminarily biotinylated antigen peptides to interact with and immobilize onto a Series S Sensor Chip SA (certified) (GE Healthcare) were used. Antibodies of interest were captured onto an antigen peptide-immobilized chip, and allowed to interact to each FcγR diluted with running buffer. To regenerate and repeatedly use the chip, the antibodies captured on the chip were washed off by reacting 10 mM glycine-HCl, pH 1.5.
(§2) The FcγR-binding activity of each antibody was assessed primarily using as an indicator the FcγR-binding activity and dissociation constant for FcγR.

[2] = target: T2, FcγRIIb extracellular domain with C-terminal His tag (human, UniProt P31994 43-217); experiment: SPR (Biacore), antibody captured on antigen peptide chip, FcγR as analyte; bound amount against control heterodimerized antibody
T2 construct: extracellular domain; Expressed in FreeStyle293 cells and used as the analyte in Biacore; also called FcgRIIb; 2b; not shown: His tag attached to the C terminus
T2 sequence (looked up): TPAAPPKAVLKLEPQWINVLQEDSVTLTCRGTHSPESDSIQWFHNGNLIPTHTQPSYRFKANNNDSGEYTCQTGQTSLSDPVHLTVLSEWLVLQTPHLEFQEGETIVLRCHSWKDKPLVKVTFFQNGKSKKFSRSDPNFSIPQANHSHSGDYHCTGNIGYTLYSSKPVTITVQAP
Protocol: as §1, §2

[3] = target: T1, FcγRIIIa extracellular domain with …; experiment: as above
Protocol: as §1, §2

T1 sequence (P08637 17-208): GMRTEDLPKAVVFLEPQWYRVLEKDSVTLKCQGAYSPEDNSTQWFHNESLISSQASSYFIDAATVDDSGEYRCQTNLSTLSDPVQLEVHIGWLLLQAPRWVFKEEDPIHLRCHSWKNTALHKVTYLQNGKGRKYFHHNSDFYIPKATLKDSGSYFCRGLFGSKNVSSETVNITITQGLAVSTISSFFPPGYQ

Binder	He_3a/2b (IIIa/IIb) [1]	He/Con_2b (IIb binding) [2]	He/Con_3a (IIIa binding) [3]
GpH7-A5/GpH7-B3 variant P271_01G/GpL16-k0 (He Ab) (antibody, human IgG1, kappa, Anti-glypican-3 heterodimerized IgG1 antibody; the mutation stands in only one H chain (the GpH7-B3 chain); also called P271G in one H chain) heavy 1: not shown heavy 2: not shown light: DIVMTQSPLSLPVTPGEPASISCQASESLVHSNRNTYLHWYLQKPGQSPQLLIYKVSNRFSGVPDRFSGSGSGTDFTLKISRVEAEDVGVYYCSQNTHVPPTFGQGTKVEIERTVAAPSVFIFPPSDEQLKSGTASVVCLLNNFYPREAKVQWKVDNALQSGNSQESVTEQDSKDSTYSLSSTLTLSKADYEKHKVYACEVTHQGLSSPVTKSFNRGEC	0.59 ratio of He/Con_3a to He/Con_2b	193 relative binding activity, GpH7-A5/GpH7-B3/GpL16-k0 = 100	113 relative binding activity, GpH7-A5/GpH7-B3/GpL16-k0 = 100
GpH7-A5/GpH7-B3 variant P271_08L/GpL16-k0 (He Ab) (antibody, human IgG1, kappa, Anti-glypican-3 heterodimerized IgG1 antibody; the mutation stands in only one H chain (the GpH7-B3 chain); also called P271L in one H chain) heavy 1: not shown heavy 2: not shown light: DIVMTQSPLSLPVTPGEPASISCQASESLVHSNRNTYLHWYLQKPGQSPQLLIYKVSNRFSGVPDRFSGSGSGTDFTLKISRVEAEDVGVYYCSQNTHVPPTFGQGTKVEIERTVAAPSVFIFPPSDEQLKSGTASVVCLLNNFYPREAKVQWKVDNALQSGNSQESVTEQDSKDSTYSLSSTLTLSKADYEKHKVYACEVTHQGLSSPVTKSFNRGEC	0.69 ratio of He/Con_3a to He/Con_2b	103 relative binding activity, GpH7-A5/GpH7-B3/GpL16-k0 = 100	71 relative binding activity, GpH7-A5/GpH7-B3/GpL16-k0 = 100
GpH7-A5/GpH7-B3 variant S267_14T/GpL16-k0 (He Ab) (antibody, human IgG1, kappa, Anti-glypican-3 heterodimerized IgG1 antibody; the mutation stands in only one H chain (the GpH7-B3 chain); also called S267T in one H chain) heavy 1: not shown heavy 2: not shown light: DIVMTQSPLSLPVTPGEPASISCQASESLVHSNRNTYLHWYLQKPGQSPQLLIYKVSNRFSGVPDRFSGSGSGTDFTLKISRVEAEDVGVYYCSQNTHVPPTFGQGTKVEIERTVAAPSVFIFPPSDEQLKSGTASVVCLLNNFYPREAKVQWKVDNALQSGNSQESVTEQDSKDSTYSLSSTLTLSKADYEKHKVYACEVTHQGLSSPVTKSFNRGEC	0.44 ratio of He/Con_3a to He/Con_2b	104 relative binding activity, GpH7-A5/GpH7-B3/GpL16-k0 = 100	45.6 relative binding activity, GpH7-A5/GpH7-B3/GpL16-k0 = 100
GpH7-A5/GpH7-B3 variant S267_15Y/GpL16-k0 (He Ab) (antibody, human IgG1, kappa, Anti-glypican-3 heterodimerized IgG1 antibody; the mutation stands in only one H chain (the GpH7-B3 chain); also called S267Y in one H chain) heavy 1: not shown heavy 2: not shown light: DIVMTQSPLSLPVTPGEPASISCQASESLVHSNRNTYLHWYLQKPGQSPQLLIYKVSNRFSGVPDRFSGSGSGTDFTLKISRVEAEDVGVYYCSQNTHVPPTFGQGTKVEIERTVAAPSVFIFPPSDEQLKSGTASVVCLLNNFYPREAKVQWKVDNALQSGNSQESVTEQDSKDSTYSLSSTLTLSKADYEKHKVYACEVTHQGLSSPVTKSFNRGEC	0.31 ratio of He/Con_3a to He/Con_2b	37.9 relative binding activity, GpH7-A5/GpH7-B3/GpL16-k0 = 100	11.8 relative binding activity, GpH7-A5/GpH7-B3/GpL16-k0 = 100

Continued, values first:

He_3a/2b (IIIa/IIb) [1]	He/Con_2b (IIb binding) [2]	He/Con_3a (IIIa binding) [3]	Binder
0.27 ratio of He/Con_3a to He/Con_2b	65.9 relative binding activity, GpH7-A5/GpH7-B3/GpL16-k0 = 100	17.9 relative binding activity, GpH7-A5/GpH7-B3/GpL16-k0 = 100	GpH7-A5/GpH7-B3 variant S267_16H/GpL16-k0 (He Ab) (antibody, human IgG1, kappa, Anti-glypican-3 heterodimerized IgG1 antibody; the mutation stands in only one H chain (the GpH7-B3 chain); also called S267H in one H chain) heavy 1: not shown heavy 2: not shown light: DIVMTQSPLSLPVTPGEPASISCQASESLVHSNRNTYLHWYLQKPGQSPQLLIYKVSNRFSGVPDRFSGSGSGTDFTLKISRVEAEDVGVYYCSQNTHVPPTFGQGTKVEIERTVAAPSVFIFPPSDEQLKSGTASVVCLLNNFYPREAKVQWKVDNALQSGNSQESVTEQDSKDSTYSLSSTLTLSKADYEKHKVYACEVTHQGLSSPVTKSFNRGEC
0.3 ratio of He/Con_3a to He/Con_2b	218 relative binding activity, GpH7-A5/GpH7-B3/GpL16-k0 = 100	65 relative binding activity, GpH7-A5/GpH7-B3/GpL16-k0 = 100	GpH7-A5/GpH7-B3 variant S267_19Q/GpL16-k0 (He Ab) (antibody, human IgG1, kappa, Anti-glypican-3 heterodimerized IgG1 antibody; the mutation stands in only one H chain (the GpH7-B3 chain); also called S267Q in one H chain) heavy 1: not shown heavy 2: not shown light: DIVMTQSPLSLPVTPGEPASISCQASESLVHSNRNTYLHWYLQKPGQSPQLLIYKVSNRFSGVPDRFSGSGSGTDFTLKISRVEAEDVGVYYCSQNTHVPPTFGQGTKVEIERTVAAPSVFIFPPSDEQLKSGTASVVCLLNNFYPREAKVQWKVDNALQSGNSQESVTEQDSKDSTYSLSSTLTLSKADYEKHKVYACEVTHQGLSSPVTKSFNRGEC
0.37 ratio of He/Con_3a to He/Con_2b	57.2 relative binding activity, GpH7-A5/GpH7-B3/GpL16-k0 = 100	21.5 relative binding activity, GpH7-A5/GpH7-B3/GpL16-k0 = 100	GpH7-A5/GpH7-B3 variant S267_20W/GpL16-k0 (He Ab) (antibody, human IgG1, kappa, Anti-glypican-3 heterodimerized IgG1 antibody; the mutation stands in only one H chain (the GpH7-B3 chain); also called S267W in one H chain) heavy 1: not shown heavy 2: not shown light: DIVMTQSPLSLPVTPGEPASISCQASESLVHSNRNTYLHWYLQKPGQSPQLLIYKVSNRFSGVPDRFSGSGSGTDFTLKISRVEAEDVGVYYCSQNTHVPPTFGQGTKVEIERTVAAPSVFIFPPSDEQLKSGTASVVCLLNNFYPREAKVQWKVDNALQSGNSQESVTEQDSKDSTYSLSSTLTLSKADYEKHKVYACEVTHQGLSSPVTKSFNRGEC
